First the molecules themselves.
B1: TPR t1 (parent)
chain: GACCAAUCUGCCCUCAGAGCUCGAGAACAUCUUCGGAUGCAGAGGAGGCAGGCUUCGGUGGCGCGAUAGCGCCAACGUCCUCAACCUCCAAUGCAUCCCACCACAUGAUGAUGCCUGAAGAGCCUUGGUUUUUUG

The series covers variants of B1. The experiment in a line: polymerase ribozyme fitness, log enrichment relative to wild type (log ratio); higher = more active; in vitro selection for triplet polymerase activity. Summed up: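 To select mutant libraries of each subunit of a heterodimeric triplet polymerase ribozyme, built by PCR and transcribed, each was annealed with a biotinylated primer, partner subunit and triplets, then incubated frozen at −7 °C. Extended constructs were gel-excised, captured on streptavidin beads and amplified by RT-PCR, in one round carried out in triplicate. Illumina sequencing of input and output libraries kept genotypes with ≥10 input reads and ≥1 read per output. Fitness is the base-2 logarithm of genotype enrichment relative to wild-type enrichment, from inverse-variance-weighted replicate averages.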
As to A5U A18C G57U C72U, the “polymerase ribozyme fitness (log ratio)” value is -2.48.

As for A5G C72G U87A A118U, the “polymerase ribozyme fitness (log ratio)” value is -1.92.

With A6C A16U C70U C104A, the “polymerase ribozyme fitness (log ratio)” value was -4.73.

Consider A5C G117C, for which the “polymerase ribozyme fitness (log ratio)” value was -3.15.

With A6G C70A C97U, the “polymerase ribozyme fitness (log ratio)” value was -1.59.

As for A5U A41G U55A C70G, the “polymerase ribozyme fitness (log ratio)” value was -3.9.

Turning to A5C G10A C34A G63U C123U, the “polymerase ribozyme fitness (log ratio)” value is -4.02.

For A6C G71A G93C C99U C123A U130A, the “polymerase ribozyme fitness (log ratio)” value was -7.12.

In the case of C4U U109A, the “polymerase ribozyme fitness (log ratio)” value is -5.02.

Regarding A5G A6U A46G C123A, the “polymerase ribozyme fitness (log ratio)” value is 0.996.

On to A6C G48A G71U C82A, for which the “polymerase ribozyme fitness (log ratio)” value was -1.

On to A5U G36C, for which the “polymerase ribozyme fitness (log ratio)” value is -1.42.

Regarding A6C U9A C15G G45A C62U C104A C124G, the “polymerase ribozyme fitness (log ratio)” value was -3.99.

With A5U A43G C102A U116C, the “polymerase ribozyme fitness (log ratio)” value was -5.9.

A6C G52U G63A: the “polymerase ribozyme fitness (log ratio)” value was -0.684.

In the case of A6C C11U G69A A91C, the “polymerase ribozyme fitness (log ratio)” value is -6.12.

For A5G C89U, the “polymerase ribozyme fitness (log ratio)” value was -0.12.

Turning to A5G A6C C11G C73A G93C, the “polymerase ribozyme fitness (log ratio)” value is -1.55.

Regarding A5G U55C C72A C73A G77U A121C, the “polymerase ribozyme fitness (log ratio)” value is -1.86.

Turning to A5U C72G U81C, the “polymerase ribozyme fitness (log ratio)” value was -1.14.

Regarding C4U G61C, the “polymerase ribozyme fitness (log ratio)” value is -2.8.

Take C4U G61U: the “polymerase ribozyme fitness (log ratio)” value is -0.685.

Regarding A6C G39U G63A, the “polymerase ribozyme fitness (log ratio)” value was -1.63.

Regarding A6C G47A C123U U125A, the “polymerase ribozyme fitness (log ratio)” value was -0.223.

Turning to A5C C72A U96A G127A, the “polymerase ribozyme fitness (log ratio)” value was -2.31.

Consider A6G C13A G17A A95G, for which the “polymerase ribozyme fitness (log ratio)” value is -3.46.

In the case of A6C A37C A111U, the “polymerase ribozyme fitness (log ratio)” value is -3.49.

As to A5U C12A A90G, the “polymerase ribozyme fitness (log ratio)” value is -0.323.

On to A5U U55G A95U U129G, for which the “polymerase ribozyme fitness (log ratio)” value was -1.03.

Take C4U G110A: the “polymerase ribozyme fitness (log ratio)” value was -1.37.

On to C4U G110U, for which the “polymerase ribozyme fitness (log ratio)” value is -1.93.

Consider A5U C15G G71C A84U, for which the “polymerase ribozyme fitness (log ratio)” value is -4.19.

Turning to A6G C11G C12U C40G G44U G93A, the “polymerase ribozyme fitness (log ratio)” value was -2.75.

For A5C G19A C89A C124G, the “polymerase ribozyme fitness (log ratio)” value was -1.76.

Regarding A6C C62G, the “polymerase ribozyme fitness (log ratio)” value is -2.28.

As for A5C A6U U32C G69C, the “polymerase ribozyme fitness (log ratio)” value is -1.62.

With A5G C53A, the “polymerase ribozyme fitness (log ratio)” value stood at 0.65.

For C4U G48U U92G G113C, the “polymerase ribozyme fitness (log ratio)” value is -3.72.

Turning to A6C C53G G69U, the “polymerase ribozyme fitness (log ratio)” value turned out to be 0.253.

Take A6C C53G C72A C123U U133C: the “polymerase ribozyme fitness (log ratio)” value was 0.968.

With A5G G45C G69A, the “polymerase ribozyme fitness (log ratio)” value is -2.95.

For C4U G69C C82A C88G A91U U106A, the “polymerase ribozyme fitness (log ratio)” value is -5.66.

A6G A41G U87A G110A U125G: the “polymerase ribozyme fitness (log ratio)” value is -3.92.

On to A5U G45U A46C, for which the “polymerase ribozyme fitness (log ratio)” value was -1.71.

On to A6C C15U C70U C101A U130G, for which the “polymerase ribozyme fitness (log ratio)” value was -4.08.

In the case of C4U G60U, the “polymerase ribozyme fitness (log ratio)” value is -0.43.

For A6G A46C C49A C53A U55C G127U, the “polymerase ribozyme fitness (log ratio)” value is -3.07.

For the variant A6C G113A, the “polymerase ribozyme fitness (log ratio)” value is -1.23.

For A5C C53G U92G G117C U129C U133C, the “polymerase ribozyme fitness (log ratio)” value is -5.53.

On to A5C U38G U96C C104U, for which the “polymerase ribozyme fitness (log ratio)” value is -2.11.

For the variant A6G C8A, the “polymerase ribozyme fitness (log ratio)” value was -0.14.

As for A5C C13U A84C U131A, the “polymerase ribozyme fitness (log ratio)” value was -2.02.

Take A5G C11A G58U: the “polymerase ribozyme fitness (log ratio)” value was -1.23.

A6C U7G A29G G48C G61A A95C: the “polymerase ribozyme fitness (log ratio)” value was -2.21.

Consider A5G U32G A50C C101U G113C C114U U131C, for which the “polymerase ribozyme fitness (log ratio)” value is -5.64.

For the variant A5U A41U G69U, the “polymerase ribozyme fitness (log ratio)” value is 0.0184.

Take A5G G52U U92C C114G: the “polymerase ribozyme fitness (log ratio)” value was -5.18.

In the case of A6G C11U A29G G52A C76A C85A U125G, the “polymerase ribozyme fitness (log ratio)” value is -5.55.

With A5C C73A C102A, the “polymerase ribozyme fitness (log ratio)” value is -2.49.

As for A6C U78A C94G U106G, the “polymerase ribozyme fitness (log ratio)” value is -3.64.

Take A6C C114U: the “polymerase ribozyme fitness (log ratio)” value is -2.3.

Consider A5C G39U C64A A68U U116C G127U, for which the “polymerase ribozyme fitness (log ratio)” value is -5.8.

Consider C4U C53U C82A U129C, for which the “polymerase ribozyme fitness (log ratio)” value is -2.91.

A5U U54C G69A U112C: the “polymerase ribozyme fitness (log ratio)” value was -0.469.

For A5U A18U C88U, the “polymerase ribozyme fitness (log ratio)” value is -2.74.

As to A5G C70G G71U G120A U131A, the “polymerase ribozyme fitness (log ratio)” value was -4.58.

Take C4U C76G C123A: the “polymerase ribozyme fitness (log ratio)” value is -0.394.

On to C4U G51C, for which the “polymerase ribozyme fitness (log ratio)” value was -2.89.

As to C4U G39U G71U G117A U133A, the “polymerase ribozyme fitness (log ratio)” value is -3.6.

Consider A6C U78C A100U G120A U131C, for which the “polymerase ribozyme fitness (log ratio)” value was -0.187.

As to C4U G17U G48A U54G G61A G77U U130C, the “polymerase ribozyme fitness (log ratio)” value was -3.69.

As for A6C G47A C86U U133G, the “polymerase ribozyme fitness (log ratio)” value is -0.584.

Consider C4U C70A G128C, for which the “polymerase ribozyme fitness (log ratio)” value was -4.51.

For A5G C13U A46U C56A C72G U78A G110A, the “polymerase ribozyme fitness (log ratio)” value was -3.02.

Turning to A5U G47A C101U, the “polymerase ribozyme fitness (log ratio)” value is -1.94.

Take A5G C13U A103U: the “polymerase ribozyme fitness (log ratio)” value was -4.92.

Turning to A6G, the “polymerase ribozyme fitness (log ratio)” value came out at 0.335.

As to A6C, the “polymerase ribozyme fitness (log ratio)” value was -0.236.

For the variant A5G A26C A100U U106A C124A, the “polymerase ribozyme fitness (log ratio)” value was -1.48.

Take A6C U78A: the “polymerase ribozyme fitness (log ratio)” value is 0.00944.

Take C4U G69A: the “polymerase ribozyme fitness (log ratio)” value is -2.91.

Consider C4U G69U, for which the “polymerase ribozyme fitness (log ratio)” value is -0.399.

For the variant C4U G47A G107U C124U, the “polymerase ribozyme fitness (log ratio)” value is -3.15.

As to A6G C11U, the “polymerase ribozyme fitness (log ratio)” value was -0.107.
